In patent US20210252069A1 (published 2021):

T1: IL13Rα2 (human, UniProt Q14627 27-380)
T1 construct: whole, on cells; Endogenous target on U87 cells; also called IL-13Ra2; IL13Ra2
T1 sequence (looked up): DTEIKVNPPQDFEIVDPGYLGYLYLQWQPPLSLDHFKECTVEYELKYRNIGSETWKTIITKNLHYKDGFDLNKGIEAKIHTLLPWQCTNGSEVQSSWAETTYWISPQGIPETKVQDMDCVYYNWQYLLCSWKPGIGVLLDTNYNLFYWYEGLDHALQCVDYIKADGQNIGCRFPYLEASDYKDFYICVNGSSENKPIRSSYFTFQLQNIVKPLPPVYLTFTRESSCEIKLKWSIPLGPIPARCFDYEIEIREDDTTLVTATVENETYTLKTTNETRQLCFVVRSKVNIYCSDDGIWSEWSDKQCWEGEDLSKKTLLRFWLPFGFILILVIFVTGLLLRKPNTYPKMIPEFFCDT


Target: T1, IL13Rα2
Test: inferred by the filing from LDH cytotoxicity of CAR-T cells on U87 (IL13Rα2+) versus 293FT (IL13Rα2-) cells
Procedure: In order to measure the cytotoxicity of IL13Rα2-specific CAR-T cells prepared in Example 2 (#1, #2, #5, #6, #7, #8, #11, or #12), cytotoxicity assay was performed using an LDH (Promega) kit. Specifically, CAR-T cells (effector cells) were used 10 days after activation of the cells with an anti-CD3 Ab, and the CAR-T cells (having a CAR expression rate of 20% to 40%) were added to a 6-well plate at a ratio 1:2, in which effector:target was 1×10⁶ cells:2×10⁶ cells and reacted at 37° C. for 24 hours.
An analysis was performed to examine whether IL13Rα2-specific CAR-T cells prepared in the present invention can effectively kill the target cancer cells (U87 expressing IL13Rα2).

Binder	binding result
CAR-containing polypeptide #6 (IL13Rα2-specific chimeric antigen receptor with human IL13.E11K.R64D.S67D.R107K binding domain, 4-1BB, IL-7Rα part, mutant CD3ζ) (receptor, Expressed on human T cells; also called CAR-T #6; PG13/#6) not shown	binds
CAR-containing polypeptide #12 (IL13Rα2-specific chimeric antigen receptor with human IL13.E11K.R64D.S67D.R107K binding domain, 4-1BB, IL-2Rβ part, mutant CD3ζ) (receptor, Expressed on human T cells; also called CAR-T #12; PG13/#12) not shown	binds
